From the DeepSol protein solubility set come the findings set out here.

This series in a line: soluble on expression in E. coli; label from the status in PepcDB or PDB records.
In the case of “GPGSMIRRYSLAIGGSCCCPAPRLISTEAFVSSVEKVQHQLGTSERKQDLILHGRQLFENESLDDIHSAWTPVVAGKICHAATQLRISPTKGQPFGAVVGLSLTPEAVGVMDAPSLARIAHSCLILRSPHLYEVLFTYIRRLITLAATLDTVSCAVLINAYGRAQVHHEEFYKVICDRAAVVMKDPRTFVAHTANVAHALSRVRYFHRDLFLTLRDQAERQASQGPPLVAVTILDGFAEIGFVDDALFTALEQRLLGELAELPAPLMASLVSCLAKAGRAPSPLFTACGERIVAIGNTFDSNSIAKTCDAFYRANVPAEEVLGTLAERACKVVADFRPDEINQTLSSLASFDLFDGELFPLLASRFVSIVKQGGYVSPVDAAGILTSFAVVQERSDELVHVCTQLLSVHRDALDGITLLQTLWACVTLNVRNEAQQNLLQCLSSGAVVLPDEASAEKESKVVLERLLFVKKAYGLQ”, the “soluble on expression in E. coli” value is on record as “not soluble”.
“MPHPKLTPKCEAPPEKRLAHLEIRFKDRRHIIPPLFHNGWVGRNEDRTLLNDTIIEFYMCDWMRLEVFDEATRASSHVFHSFFLPKIKTCFKDFKENPPRRSELANHYNRFFRSKNDAETFLKKDILLIPVHLDKPKHWFLVIVHNPSGAVRRISDVNILDATNKVKSRRLSRRITGHVNCDENAGECRIIIMDSLVHSKKYREVIDKTHDSTFDHIRLWLLMSAAATDVDMFCTRFRKVVCQKLPQQKNSVDCGIFMMAFAEYFTKYNTAWQSLPTDALADLKMDDDIKSLLNSETPRQRLDELFQSLKA”: the “soluble on expression in E. coli” value was “not soluble”.
Regarding “MSLTVMSIQDNLTINEKKVLLALEELRSAVPDKLEEKSGLQIDAAMQAAFMLQEKELASVSEKVLERYSLTKEGEEYKKTGLPERQIIDALKNPVSLEELRSCFSPQTVGIATGWLVKKGWAKVENGIMVPSGEASEGKDEKALSAFAGKAKTLEELGADEGTVKDLLKRKLVVKHEEKFRTVSITDAGSELASQGLVLEEEIAQLTPELLKSGAWKEKKFRPYRLDITPKPLYGTKIHPYRRLIEQMRQIFLEMGFTEIKGGIIQSSFWNFDALFQPQDHPARDMQDTFHLGSTCQIPAEYSGKVAAMHENGGDIDSCGWGGIWDRELAGRNVLRTHTTSVTIKYLADNPEPPVKAFCIDRAYRRETIDPTHTPEFEQLEGVVMDKDMSFADLLGLLAEFYHRMGFEEVRFRPGYFPYTEPSVEPEVYVDGLGWVELGGAGVFRKEVTEPLGIKAPVLAWGLGVSRLAMLKLGLKDLRLLYQSDIDWLRKSEVCKEGHHHHHH”, the “soluble on expression in E. coli” value is recorded as “soluble”.
As to “MGSDKIHHHHHHMKSSQPFIYEAHAARVVFGAGSSSQVAAEVERLGAKRALVLCTPNQQAEAERIADLLGPLSAGVYAGAVMHVPIESARDATARAREAGADCAVAVGGGSTTGLGKAIALETGMPIVAIPTTYAGSEVTPVYGLTEAGTKRTGRDPRVLPRTVIYDPALTVGLPRGLSVTSALNAIAHAAEGLYARDANPVMSLMAEEGIRALAAGIPAVFNDPADLDARSQCLYGAWLCGTVLGGVGMALHHKLCHTLGGSFNLPHAETHTIVLPHALAYNAAAVPEAMARIRRATGAGEQSAAATLFDLAQRHGAPVALRDIGMREEDLDRAADIALASPYWNPRPIEREPIRALLQAAYEGVRPD”, the “soluble on expression in E. coli” value was “not soluble”.
With “MGSDKIHHHHHHMRILTFTGKGGVGKTSVSAATAVRLSEMGHRTLVLSTDPAHSLSDSFNIQLGAEPTKIKENLHAIEVNPYVDLKQNWHSVQKYYTRIFMAQGVSGVMADEMTILPGMEELFSLLRIKRYKSAGLYDALVLDTAPTGETLRLLSLPDTLSWGMKAVKNVNKYIVRPLSKPLSKMSDKIAYYIPPEDAIESVDQVFDELEDIREILTDNVKSTVRLVMNAEKMSIKETMRALTYLNLYGFKVDMVLVNKLLDAQENSGYLEKWKGIQQKYLGEIEEGFSPLPVKKLKMYDQEIVGVKSLEVFAHDIYGDTDPSGMMYDEPPIKFVRQGDVYEVQLKLMFANPVDIDVWVTGDELFVQIGNQRKIITLPVSLTGLEPGDAVFKDKWLHIPFDLEKQGQHHRTREYNKA” the entry was “not soluble”.
With “MAHHHHHHMCAKLRDSANISSLRKERDCWQREVARVSDAVRVLCGGANICSNVESPTEWAESLCEAVQDGQAALVCLSLELWTGGTWAGIQGFKEQLTAYVGACASAAKEAAERVEALEVEVLRLKESEASLSARCENTEAHARNVEEDLKRASTQAERVSELEQETSDLRTRCNLLRKELQRQREAMQRDRPQPHETANSETAASPITENASAVQSVLLAAAGCVSERDVATFVGSRGSQDGSLKLSKVGAELLIKENAELKRENAHNNGVIAQYIRELEGYKANERVQLSIEYLRNIVQQYLCAAEDLRPKMIPAICTVLEFSSKQKEDVQTANPRCPRFH” the entry was “soluble”.
